This is an account of results in article PMC5469796, “Interaction of PKR with single-stranded RNA”.

The Kd is the concentration at which binding is half-saturated.

“And” between values parts separate entries of the source, which are not always exact repeats. Identical values can stand only once.

The target of data set [1] is 229-kinase (UniProt P19525). Briefly: sedimentation velocity AUC. The settings on record: AU75: 75 mM HEPES pH 7.5, 75 mM NaCl, 0.1 mM EDTA, 0.1 mM TCEP, 20 °C, 50,000 rpm, 260 nm; errors are confidence intervals (95% joint stated for Table 2) ….
Data set [2] has as its target 242-kinase (UniProt P19525). Briefly: sedimentation velocity AUC. The note with it: AU75: 75 mM HEPES pH 7.5, 75 mM NaCl, 0.1 mM EDTA, 0.1 mM TCEP, 20 °C, 50,000 rpm, 260 nm; errors are confidence intervals (95% joint stated for Table 2) ….
Data set [3] addresses PKR full length (UniProt P19525 1-551). Briefly: sedimentation velocity AUC; Kd1, sequential 2:1; AU75: 75 mM HEPES pH 7.5, 75 mM NaCl, 0.1 mM EDTA, 0.1 mM TCEP, 20 °C, 50,000 rpm, 260 nm; errors are confidence intervals (95% joint stated for Table 2); crosslinking in AU75 + 10 mM EDTA, 0.5 µM RNA, 1 µM protein, on ice before UV. The settings on record: protein: recombinant, chain copies: 2.

The target in data set [4] is T1, PKR dsRBD (UniProt P19525 1-184). The experiment in a line: sedimentation velocity AUC; Kd1; footnote b not in material; AU75: 75 mM HEPES pH 7.5, 75 mM NaCl, 0.1 mM EDTA, 0.1 mM TCEP, 20 °C, 50,000 rpm, 260 nm; errors are confidence intervals (95% joint stated for Table 2); crosslinking in AU75 + 10 mM EDTA, 0.5 µM RNA, 1 µM protein, on ice before UV. The note with it: protein: recombinant; chain copies: 2; weak predicted secondary structure.

For data set [5], the target named is T1, PKR dsRBD. The experiment in a line: sedimentation velocity AUC; Kd1, sequential 2:1; AU75: 75 mM HEPES pH 7.5, 75 mM NaCl, 0.1 mM EDTA, 0.1 mM TCEP, 20 °C, 50,000 rpm, 260 nm; errors are confidence intervals (95% joint stated for Table 2); crosslinking in AU75 + 10 mM EDTA, 0.5 µM RNA, 1 µM protein, on ice before UV. The settings on record: protein: recombinant; chain copies: 2; single strand.

Data set [6] addresses 185-kinase (UniProt P19525 185-551). The data set is described as above. The note with it: protein: recombinant; tags: TEV-cleaved, extra N-terminal Gly; chain copies: 2; single strand.
The target of data set [7] is 229-kinase (UniProt P19525 229-551). Described as above. The note with it: protein: recombinant; tags: TEV-cleaved, extra N-terminal Gly; chain copies: 2; single strand.
The target in data set [8] is 242-kinase (UniProt P19525 242-551). The experiment in a line: sedimentation velocity AUC; 1:1 model; second protein not detected; AU75: 75 mM HEPES pH 7.5, 75 mM NaCl, 0.1 mM EDTA, 0.1 mM TCEP, 20 °C, 50,000 rpm, 260 nm; errors are confidence intervals (95% joint stated for Table 2); crosslinking in AU75 + 10 mM EDTA, 0.5 µM RNA, 1 µM protein, on ice before UV. The settings on record: protein: recombinant; tags: TEV-cleaved; single strand.

Setting [9] is: weak predicted secondary structure.

T1 sequence (P19525 1-184): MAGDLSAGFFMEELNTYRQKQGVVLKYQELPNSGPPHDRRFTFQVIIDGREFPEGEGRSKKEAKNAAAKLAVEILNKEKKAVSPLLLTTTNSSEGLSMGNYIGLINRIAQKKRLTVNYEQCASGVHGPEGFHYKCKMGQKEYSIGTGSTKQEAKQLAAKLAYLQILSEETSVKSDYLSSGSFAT
PKR full length, sequence (P19525 whole entry): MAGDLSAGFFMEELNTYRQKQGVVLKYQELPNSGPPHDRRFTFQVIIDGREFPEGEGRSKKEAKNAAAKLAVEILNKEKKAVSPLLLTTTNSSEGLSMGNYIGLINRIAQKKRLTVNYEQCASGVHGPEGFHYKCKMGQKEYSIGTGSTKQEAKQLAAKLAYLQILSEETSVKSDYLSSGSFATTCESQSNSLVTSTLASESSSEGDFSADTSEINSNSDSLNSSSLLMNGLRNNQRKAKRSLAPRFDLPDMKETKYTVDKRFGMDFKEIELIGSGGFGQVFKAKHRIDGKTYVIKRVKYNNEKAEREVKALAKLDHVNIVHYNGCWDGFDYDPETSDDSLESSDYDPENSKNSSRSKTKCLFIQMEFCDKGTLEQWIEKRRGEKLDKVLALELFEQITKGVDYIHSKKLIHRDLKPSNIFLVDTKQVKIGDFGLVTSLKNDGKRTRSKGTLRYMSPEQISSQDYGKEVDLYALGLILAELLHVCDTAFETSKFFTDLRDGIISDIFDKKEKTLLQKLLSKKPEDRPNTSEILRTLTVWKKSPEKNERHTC
229-kinase (UniProt P19525 229-551), sequence (P19525 229-551): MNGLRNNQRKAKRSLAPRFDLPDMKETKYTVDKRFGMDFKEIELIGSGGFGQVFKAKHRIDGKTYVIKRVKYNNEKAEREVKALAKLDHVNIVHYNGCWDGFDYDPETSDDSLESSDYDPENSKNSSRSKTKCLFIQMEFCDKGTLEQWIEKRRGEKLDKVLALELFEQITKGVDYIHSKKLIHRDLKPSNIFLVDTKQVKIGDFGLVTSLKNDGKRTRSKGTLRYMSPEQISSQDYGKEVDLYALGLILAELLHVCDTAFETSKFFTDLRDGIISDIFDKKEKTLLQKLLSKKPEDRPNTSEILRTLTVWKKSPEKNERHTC
229-kinase (UniProt P19525), sequence (P19525 229-551): as above
185-kinase, sequence (P19525 185-551): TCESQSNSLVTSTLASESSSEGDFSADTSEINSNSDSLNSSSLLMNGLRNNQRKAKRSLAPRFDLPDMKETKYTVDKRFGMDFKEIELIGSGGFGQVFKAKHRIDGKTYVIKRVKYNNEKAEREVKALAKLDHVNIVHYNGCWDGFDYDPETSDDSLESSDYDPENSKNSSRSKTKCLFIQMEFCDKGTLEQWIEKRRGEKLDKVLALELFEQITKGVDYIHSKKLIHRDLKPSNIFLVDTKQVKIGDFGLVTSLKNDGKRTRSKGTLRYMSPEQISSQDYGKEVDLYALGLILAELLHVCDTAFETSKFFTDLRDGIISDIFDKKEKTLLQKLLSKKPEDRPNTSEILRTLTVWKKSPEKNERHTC
242-kinase (UniProt P19525), sequence (P19525 242-551): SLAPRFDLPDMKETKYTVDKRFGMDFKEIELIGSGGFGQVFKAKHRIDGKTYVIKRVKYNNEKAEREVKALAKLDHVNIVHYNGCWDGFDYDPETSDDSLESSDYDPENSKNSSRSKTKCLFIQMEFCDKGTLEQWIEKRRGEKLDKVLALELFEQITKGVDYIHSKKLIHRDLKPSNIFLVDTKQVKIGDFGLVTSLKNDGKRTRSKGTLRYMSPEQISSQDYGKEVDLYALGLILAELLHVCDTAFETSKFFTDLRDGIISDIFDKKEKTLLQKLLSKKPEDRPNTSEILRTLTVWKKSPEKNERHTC
242-kinase (UniProt P19525 242-551), sequence (P19525 242-551): as above

ds30: the Kd in data set [1] is 3.8 µM and 3.27 µM; in data set [2] it was 19.9 µM.

With GGAGAACUUAAUGCCGGAGACCAAAGACUU (ssRNA, 5'-OH) [Het30], the Kd in data set [3] (setting [9]) was 1.07 µM; in data set [4], 8.21 µM.

With UUUUUUUUUUUUUUUUUUUUUUUUUUUUUU (ssRNA) [U30], the Kd in data set [3] (single strand) worked out at 3.51 µM; in data set [5], 8.42 µM; in data set [6], 31.9 µM; in data set [7], 1.91 µM; in data set [8], 90 µM.

In the case of TTTTTTTTTTTTTTTTTTTTTTTTTTTTTT (ssDNA) [dT30], the equilibrium dissociation constant (Kd) in data set [7] was determined as 2.59 µM.

For GGAGAACUUAAUGCCGGAGACCAAAGACUU (ssRNA, 5'-triphosphate) [ppp-Het30], the Kd is 0.825 µM in data set [3] (setting [9]) and 5.36 µM in data set [4].
